Experimental data: patent US20250230244A1 (University of Texas, published 2025)

T1: B7-H3 peptide 4 (human)
T1 peptide: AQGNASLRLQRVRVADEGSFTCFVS

T2: B7-H3 peptide 8 (human)
T2 peptide: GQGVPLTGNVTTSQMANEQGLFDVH

T3: B7-H3 peptide 10 (human)
T3 peptide: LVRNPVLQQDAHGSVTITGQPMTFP

T4: B7-H3 peptide 1 (human)
T4 peptide: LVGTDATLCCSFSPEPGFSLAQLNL

T5: B7-H3 peptide 7 (human)
T5 peptide: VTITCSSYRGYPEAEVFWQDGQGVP

T6: B7-H3 peptide 3 (human)
T6 peptide: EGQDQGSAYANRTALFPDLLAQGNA

T7: B7-H3 peptide 5 (human)
T7 construct: Said to lie in the IgV domain spanning through the FG loop
T7 peptide: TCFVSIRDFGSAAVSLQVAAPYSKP

T8: B7-H3 peptide 6 (human)
T8 peptide: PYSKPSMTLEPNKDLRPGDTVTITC

T9: B7-H3 peptide 2 (human)
T9 peptide: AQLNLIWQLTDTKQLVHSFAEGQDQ

B1: anti-B7-H3 monoclonal antibody T-1A5 (mouse, isotype IgG1) (antibody)
heavy: QVQLQQSGAELVKPGASVKLSCKASGYTFTSYDINWVRQRPEQGLEWIGWIFPGDDTTNYNENFKGKATLTADKSSSTAYMQLTRLTSEDSAVFFCARSVGFDYWGQGTTLTVSSAKTTPPSVYPLAPGSAAQTNSMVTLGCLVKGYFPEPVTVTWNSGSLSSGVHTFPAVLQSDLYTLSSSVTVPSSTWPSETVTCNVAHPASSTKVDKKIVPRDCGCKPCICTVPEVSSVFIFPPKPKDVLTITLTPKVTCVVVDISKDDPEVQFSWFVDDVEVHTAQTQPREEQFNSTFRSVSELPIMHQDWLNGKEFKCRVNSAAFPAPIEKTISKTKGRPKAPQVYTIPPPKEQMAKDKVSLTCMITDFFPEDITVEWQWNGQPAENYKNTQPIMDTDGSYFVYSKLNVQKSNWEAGNTFTCSVLHEGLHNHHTEKSLSHSPGK
light: QIVLIQSPAIMSASPGEKVTMTCSASSSISYMYWYQQKPGTSPKRWIFETSKLASGVPARFSGSGSGTSYSLTISSMEAEDAATYYCHQRSSYPTFGGGTKLEIKRADAAPTVSIFPPSSEQLTSGGASVVCFLNNFYPKDINVKWKIDGSERQNGVLNSWTDQDSKDSTYSMSSTLTLTKDEYERHNSYTCEATHKTSTSPIVKSFNRNEC
notes: also called T-1A5A10; mAb T-1A5
B2: human-mouse chimeric anti-B7-H3 antibody ChT-1A5 (antibody, human IgG1, kappa)
heavy: not shown
light: QIVLIQSPAIMSASPGEKVTMTCSASSSISYMYWYQQKPGTSPKRWIFETSKLASGVPARFSGSGSGTSYSLTISSMEAEDAATYYCHQRSSYPTFGGGTKLEIKRTVAAPSVFIFPPSDEQLKSGTASVVCLLNNFYPREAKVQWKVDNALQSGNSQESVTEQDSKDSTYSLSSTLTLSKADYEKHKVYACEVTHQGLSSPVTKSFNRGEC
notes: also called chimeric T-1A5 antibody

Tests used:
B7-H3 peptide 4 [1] = molecular target: T1, B7-H3 peptide 4; assay: biolayer interferometry (Octet) traces, concentrations not printed [Peptide 4, column T-1A5]
B7-H3 peptide 8 = molecular target: T2, B7-H3 peptide 8; assay: biolayer interferometry (Octet), epitope mapping table [panel D, row Peptide 8]
Experimental: (§1) The Octet RED384 System (FortdBio) was used to further characterize the chimeric and murine clones. The kinetics of the clones were tested by measuring the interaction between the antibody and its target by bio-layer interferometry technology.
(§2) The inventors generated 10 peptides from the extracellular domain of B7-H3 with a span of 25 amino acids and an overlap of 5 amino acids with each subsequent peptide.

B7-H3 peptide 10 = molecular target: T3, B7-H3 peptide 10; assay: biolayer interferometry (Octet), epitope mapping table [panel D, row Peptide 10]
Experimental: as §1, §2

B7-H3 peptide 1 [2] = molecular target: T4, B7-H3 peptide 1; assay: biolayer interferometry (Octet), epitope mapping table [panel D, row Peptide 1]
Experimental: as §1, §2

B7-H3 peptide 7 = molecular target: T5, B7-H3 peptide 7; assay: biolayer interferometry (Octet), epitope mapping table [panel D, row Peptide 7]
Experimental: as §1, §2

B7-H3 peptide 3 [3] = molecular target: T6, B7-H3 peptide 3; assay: biolayer interferometry (Octet) traces, concentrations not printed [Peptide 3, column T-1A5]
B7-H3 peptide 5 [4] = molecular target: T7, B7-H3 peptide 5; assay: biolayer interferometry (Octet), number beside the raw traces [panel D, T-1A5-peptide 5]
B7-H3 peptide 6 [5] = molecular target: T8, B7-H3 peptide 6; assay: biolayer interferometry (Octet) traces, concentrations not printed [continued), Peptide 6, left column]
Experimental: as §1, §2

B7-H3 peptide 2 [6] = molecular target: T9, B7-H3 peptide 2; assay: biolayer interferometry (Octet) traces, concentrations not printed [Peptide 2, column T-1A5]
Experimental: as §1, §2

B7-H3 peptide 5 [7] = molecular target: T7, B7-H3 peptide 5; assay: biolayer interferometry (Octet), epitope mapping with B7-H3 peptides [panel D, row Peptide 5]
Experimental: as §1, §2

B7-H3 peptide 2 [8] = molecular target: T9, B7-H3 peptide 2; assay: biolayer interferometry (Octet) traces, concentrations not printed [Peptide 2, column ChT-1A5]
B7-H3 peptide 6 [9] = molecular target: T8, B7-H3 peptide 6; assay: biolayer interferometry (Octet), epitope mapping table [panel D, row Peptide 6]
Experimental: as §1, §2

B7-H3 peptide 1 [10] = molecular target: T4, B7-H3 peptide 1; assay: biolayer interferometry (Octet) traces, concentrations not printed [Peptide 1, column ChT-1A5]
B7-H3 peptide 4 [11] = molecular target: T1, B7-H3 peptide 4; assay: biolayer interferometry (Octet) traces, concentrations not printed [Peptide 4, column ChT-1A5]
Experimental: as §1, §2

B7-H3 peptide 3 [12] = molecular target: T6, B7-H3 peptide 3; assay: biolayer interferometry (Octet) traces, concentrations not printed [Peptide 3, column ChT-1A5]

Binder | binding result (B7-H3 peptide 4 [1]) | binding result (B7-H3 peptide 8) | binding result (B7-H3 peptide 10) | binding result (B7-H3 peptide 1 [2]) | binding result (B7-H3 peptide 7) | binding result (B7-H3 peptide 3 [3]) | Kd (B7-H3 peptide 5 [4]) [nM] | binding result (B7-H3 peptide 6 [5]) | binding result (B7-H3 peptide 2 [6]) | Kd (B7-H3 peptide 5 [7]) [nM] | binding result (B7-H3 peptide 2 [8]) | binding result (B7-H3 peptide 6 [9]) | binding result (B7-H3 peptide 1 [10]) | binding result (B7-H3 peptide 4 [11]) | binding result (B7-H3 peptide 3 [12])
B1 | no binding | no binding | no binding | no binding | no binding | no binding | 151 | no binding | no binding | 151 | – | – | – | – | –
B2 | – | no binding | no binding | – | no binding | – | – | – | – | – | no binding | no binding | no binding | no binding | no binding
